Measured values reported in patent publication EP1117687B1.

Target: Mouse MHC Class I (mouse B6 class I antigens, H-2^b: D^b or K^b) on RMA-S cells (mouse)
Assay: RMA-S MHC stabilisation, flow cytometry with FITC anti-D^b or anti-K^b

Row | Molecule | Binding Affinity to Mouse MHC Class I (percent increase of D^b or K^b on RMA-S cells) [%]
1 | WT1 peptide P118-126 … | 2
2 | WT1 peptide P119-127 … | 2
3 | WT1 peptide P120-128 … | 1
4 | WT1 peptide P122-130 … | 1
5 | WT1 peptide P123-131 … | 1
6 | WT1 peptide P125-133 … | 1
7 | WT1 peptide P128-136 … | 1
8 | WT1 peptide P130-138 … | 79
9 | WT1 peptide p126-134 … | 79
10 | SSGQARMFP [WT1 peptide P121-129 …] | 1
11 | PSQASSGQA [WT1 peptide P117-125 …] | 2
12 | APYLPSCLE [WT1 peptide P131-139 …] | 1
13 | MFPNAPYLP [WT1 peptide P127-135 …] | 2
14 | QARMFPNAP [WT1 peptide P124-132 …] | 1
15 | PNAPYLPSC [WT1 peptide P129-137 …] | 1
